Measurements reported in article PMC8565330.

Biological target: GST-G3BP1 (human, UniProt Q13283 1-466)
Test: fluorescence anisotropy

Sequence of GST-G3BP1 (Q13283 whole entry): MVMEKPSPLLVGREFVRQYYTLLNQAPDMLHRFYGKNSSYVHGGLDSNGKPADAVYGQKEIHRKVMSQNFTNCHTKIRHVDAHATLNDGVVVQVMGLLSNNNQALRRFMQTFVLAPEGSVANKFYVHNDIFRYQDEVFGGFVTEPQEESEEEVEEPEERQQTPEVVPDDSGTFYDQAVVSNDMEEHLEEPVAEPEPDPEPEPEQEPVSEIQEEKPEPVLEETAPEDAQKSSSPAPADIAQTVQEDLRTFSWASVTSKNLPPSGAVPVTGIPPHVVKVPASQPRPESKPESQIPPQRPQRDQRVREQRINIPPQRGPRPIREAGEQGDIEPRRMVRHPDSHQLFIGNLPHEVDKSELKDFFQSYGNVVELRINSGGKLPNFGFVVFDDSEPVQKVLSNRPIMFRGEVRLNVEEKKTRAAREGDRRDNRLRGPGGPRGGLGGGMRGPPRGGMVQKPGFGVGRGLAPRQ

**Q.** With GUGUAAAAGGGGCGGGUCUGGGUGCG (ssRNA) [NRAS rM4] as the binder, how does the Kd read?
**A.** 266 ± 36 nM

**Q.** Which Kd does the source give for GAGCGCGGAAGCGCGCGCGCGCGCGCGCGG (ssRNA) [PITX1 rM4] here?
**A.** 761 ± 73 nM
